Measured values as given in PMC9514218 (Protein Science : A Publication of the Protein Society, 2022).
Positions count from the first letter of the chain named. Ends that are not written are not given here.

Experiments:
[1] = target: T1, SURP1 (res. 48–110) of human SF3A1, N63Q mutant (human, UniProt Q15459 48-110, N63Q); test: BLI
T1 sequence: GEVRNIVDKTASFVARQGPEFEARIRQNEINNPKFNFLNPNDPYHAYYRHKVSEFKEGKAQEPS

[2] = target: T2, SURP1 (res. 48–110) of human SF3A1, R62Q mutant (human, UniProt Q15459 48-110, R62Q); test: BLI
T2 sequence: T1 sequence with R16Q, Q17N

[3] = target: T3, SURP1 (res. 48–110) of human SF3A1, N63E mutant (human, UniProt Q15459 48-110, N63E); test: BLI
T3 sequence: T1 sequence with Q17E

[4] = target: T4, SURP1 (res. 48–110) of human SF3A1, wild type (human, UniProt Q15459 48-110); test: BLI
T4 sequence: T1 sequence with Q17N

[5] = target: T5, SURP1 (res. 48–110) of human SF3A1, R62E mutant (human, UniProt Q15459 48-110, R62E); test: BLI
T5 sequence: T1 sequence with R16E, Q17N

[6] = target: T6, SURP1 (res. 48–110) of human SF3A1, K80Q mutant (human, UniProt Q15459 48-110, K80Q); test: BLI
T6 sequence: T1 sequence with Q17N, K34Q

[7] = target: T7, SURP1 (res. 48–110) of human SF3A1, K80D mutant (human, UniProt Q15459 48-110, K80D); test: BLI
T7 sequence: T1 sequence with Q17N, K34D

[8] = target: T4, SURP1 (res. 48–110) of human SF3A1, …; test: NMR solution structure

Binder	Kd [1] [µM]	Kd [2] [µM]	Kd [3] [µM]	Kd [4] [µM]	Kd [5] [µM]	Kd [6] [µM]	Kd [7] [µM]	binding result [8]
QRPGDPQSAQDKARMDKEYLSLMAELGEAPVPA (peptide, UniProt Q15637 295-327, looked up, also: biotin (position not given here)) [biotin-tagged SF1 S1BRp (res. 295–327)]	139	187	251	15.2	393	64.2	132	–
QRPGDPQSAQDKARMDKEYLSLMAELGEAPVPA (domain or fragment, human, UniProt Q15637 295-327, looked up) [S1BR (res. 295–327) of SF1 as it stands in the chimera]	–	–	–	–	–	–	–	binds
QRPGDPQSAQDKARMDKEYLSLMAELGEAPVPASVGSTSGP (peptide, UniProt Q15637 295-335, looked up, also: biotin (position not given here)) [biotin-tagged SF1 S1BRp (res. 295–335)]	–	–	–	17.3	–	–	–	–
